Data set [1] in a line: Solubility of gBDLD in MES buffer. In kind it is physicochemical. The conditions noted are these: 55 mM MES, pH 5.5, 300 mM NaCl. How it is done: DNA sequence corresponding to amino acids 57-146 of HCMV AD169 glycoprotein B disintegrin-like domain (“gBDLD”) was cloned into the bacterial expression vector pET-28a containing an N-terminal His-Tag with thrombin cleavage site and kanamycin resistance. (Commercially available from Novagen, San Diego, Calif.) gBDLD production was induced by the addition of 1 mM isopropyl-βD-thiogalactopyranoside (IPTG). E. coli Tuner strain containing pET-28a:gBDLD was grown at 37° C. in Luria-Bertani medium containing kanamycin (50 μg/mL) to an optical density at 600 nm of approximately 0.6. IPTG (1 mM) was added and the plates were incubated continuously for 4 h at 37° C. Cells were harvested by centrifugation at 4000 r/min for 10 min and pellets were resuspended in 1% Triton X-100/Ni-NTA buffer (300 mM NaCl/50 mM Tris-HCL pH 7.9) and lysed by 3×60 s bursts of sonication. The lysate was centrifuged at 15,000 r/min for 15 minutes at 4° C. The 8M urea/Ni-NTA fraction was then poured into a chromatography column containing nickel-nitriloacetic acid agarose (Ni-NTA) beads at 4° C. and allowed to flow through. […] Fractions containing protein were determined by measuring the absorbance of each fraction at 214 nm. Fractions that corresponded to absorption peaks were analyzed by sodium dodecyl sulfate polyacrylamide electrophoresis (SDS-PAGE) to determine the size of the protein. […]

The next data set deals with NHDF cells. Briefly: Cytoskeletal rearrangement in NHDF cells (actin staining with phalloidin). In kind it is cell-based, human. The conditions noted are these: compared to buffer alone. An excerpt:
gBDLD Triggers Cytoskeletal Rearrangements: β1 integrins are known inducers of broad signal transduction events. […] To test the role of gBDLD in mediating signaling events, we stimulated NHDF cells with buffer alone, gBDLD, or a known cytoskeletal reorganizer (EGF), followed by actin staining with phalloidin.

Data set [2] has as its target Normal human dermal fibroblasts. Nature of the data set: Protein binding assay: gBDLD binding to human fibroblasts (His-tag ELISA). How it is done:
Normal human dermal fibroblasts were chilled to 4° C., washed three times with cold MES buffer and blocked with 1 mg/mL bovine serum albumin (BSA) for 30 minutes at 4° C. Unbound BSA was removed with cold MES washes (×4). The indicated amounts of gBDLD were added to each well for 90 minutes at 4° C. Cells were then washed three times with cold MES, twice with cold (phosphate-buffered saline (PBS) and fixed with 3% paraformaldehyde. An ELISA was then performed probing with anti-His rabbit polyclonal antibody (Santa Cruz Biotechnology, Santa Cruz, Calif.) and anti-rabbit HRP (Pierce). Absorbance was measured at 405 nm.
FIG. 7 is a graph depicting the results of a gBDLD binding assay (performed as described previously). Here, binding was measured by absorbance at 405 nm. […] To generate the data, human fibroblasts were incubated with gBDLD for the indicated times at 4° C. Cells were then washed, fixed and an ELISA was performed probing for the gBDLD […] his-tag. […]
FIG. 8 is a graph depicting gBDLD binding to human fibroblasts. As is readily apparent from FIG. 8, this binding is dose-dependent and saturable. […] After three IVIES washes and two PBS washes, cells were fixed in 3% paraformaldehyde and a His-tag ELISA was performed to quantitate gBDLD bound to cells.
Background: In an ELISA, binding on a coated surface is turned into a signal by an enzyme label.

The target in a further data set is T1, β3 integrin (Homo sapiens, UniProt P05106).
T1 construct: endogenous in cells; host or cells: Normal Human Dermal Fibroblasts (NHDF), 1% TX-100 lysate
Briefly: Integrin co-immunoprecipitation assay, Western blot for β3 integrin. In kind it is binding. The conditions noted are these: human fibroblast lysates, nickel beads. How it is done:
(§1) A T-175 flask of NHDFs was grown to complete confluence, washed three times in MES buffer and lysed in 1 mL MES buffer+1% TX-100 (a detergent). Lysate was spun at 10,000 g for 10 minutes to remove cell debris. Cell lysate (350 μL) was then incubated with 20 μg gBDLD for 4 hours at 4° C. The lysate+gBDLD mixture was then incubated with 50 μL Ni beads overnight at 4° C. Nickel beads were then washed three times and protein eluted by boiling and then adding reducing SDS-PAGE buffer. Proteins were separated by SDS-PAGE and Western blotted for β1 integrin (Chemicon-1965) or β3 (Chemicon) as previously described.^48
(§2) To identify the cellular receptor for gBDLD we performed co-immunoprecipitation studies. Briefly, gBDLD was incubated with human fibroblast lysates and pulled down with nickel-conjugated agarose beads.
(§3) Because gBDLD contains a known β1 integrin binding motif, gBDLD bound to its cellular receptor was isolated by SDS-PAGE and then Western blotted for either β1 or β3 integrin. The resulting gels are shown in FIG. 10 (β1) and FIG. 11 (β3).
A general note: Immunoblotting shows a protein as a band on a membrane.

Another data set relates to diI-labeled HCMV. Format: cell-based, Human cytomegalovirus. The conditions noted are these: gBDLD or BSA 320 μg/mL, soluble heparin 50 μg/mL; 24 hours post-infection.
The target in the next data set is T2, β1 integrin (Homo sapiens, UniProt P05556).
T2 construct: endogenous in cells; host or cells: Normal Human Dermal Fibroblasts (NHDF), 1% TX-100 lysate
Nature of the data set: Integrin co-immunoprecipitation assay, Western blot for β1 integrin. In kind it is binding. The conditions noted are these: human fibroblast lysates, nickel beads. How it is done:
as §1, §2, §3

T1 sequence (P05106 27-788): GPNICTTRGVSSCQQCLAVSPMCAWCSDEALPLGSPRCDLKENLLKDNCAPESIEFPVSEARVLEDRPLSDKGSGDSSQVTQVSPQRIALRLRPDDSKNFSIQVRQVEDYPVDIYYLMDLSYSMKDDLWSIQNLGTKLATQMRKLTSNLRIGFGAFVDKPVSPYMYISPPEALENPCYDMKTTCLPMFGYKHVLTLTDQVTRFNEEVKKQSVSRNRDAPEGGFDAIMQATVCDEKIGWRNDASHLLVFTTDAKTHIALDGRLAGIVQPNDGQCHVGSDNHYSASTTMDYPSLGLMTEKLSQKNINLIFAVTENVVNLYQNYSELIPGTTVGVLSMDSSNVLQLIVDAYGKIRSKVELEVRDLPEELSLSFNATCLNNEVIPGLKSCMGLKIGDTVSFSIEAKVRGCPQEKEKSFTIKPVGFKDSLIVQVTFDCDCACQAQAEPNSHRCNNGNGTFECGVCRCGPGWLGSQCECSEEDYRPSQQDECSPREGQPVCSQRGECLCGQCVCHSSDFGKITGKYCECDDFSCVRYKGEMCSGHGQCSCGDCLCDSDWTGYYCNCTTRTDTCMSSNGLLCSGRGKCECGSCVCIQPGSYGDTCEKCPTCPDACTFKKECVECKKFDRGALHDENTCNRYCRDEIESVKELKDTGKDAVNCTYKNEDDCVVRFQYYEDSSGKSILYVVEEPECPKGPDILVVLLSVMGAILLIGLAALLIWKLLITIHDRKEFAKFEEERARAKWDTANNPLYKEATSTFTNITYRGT
T1 sequence (P06756 31-889 partner limits assumed): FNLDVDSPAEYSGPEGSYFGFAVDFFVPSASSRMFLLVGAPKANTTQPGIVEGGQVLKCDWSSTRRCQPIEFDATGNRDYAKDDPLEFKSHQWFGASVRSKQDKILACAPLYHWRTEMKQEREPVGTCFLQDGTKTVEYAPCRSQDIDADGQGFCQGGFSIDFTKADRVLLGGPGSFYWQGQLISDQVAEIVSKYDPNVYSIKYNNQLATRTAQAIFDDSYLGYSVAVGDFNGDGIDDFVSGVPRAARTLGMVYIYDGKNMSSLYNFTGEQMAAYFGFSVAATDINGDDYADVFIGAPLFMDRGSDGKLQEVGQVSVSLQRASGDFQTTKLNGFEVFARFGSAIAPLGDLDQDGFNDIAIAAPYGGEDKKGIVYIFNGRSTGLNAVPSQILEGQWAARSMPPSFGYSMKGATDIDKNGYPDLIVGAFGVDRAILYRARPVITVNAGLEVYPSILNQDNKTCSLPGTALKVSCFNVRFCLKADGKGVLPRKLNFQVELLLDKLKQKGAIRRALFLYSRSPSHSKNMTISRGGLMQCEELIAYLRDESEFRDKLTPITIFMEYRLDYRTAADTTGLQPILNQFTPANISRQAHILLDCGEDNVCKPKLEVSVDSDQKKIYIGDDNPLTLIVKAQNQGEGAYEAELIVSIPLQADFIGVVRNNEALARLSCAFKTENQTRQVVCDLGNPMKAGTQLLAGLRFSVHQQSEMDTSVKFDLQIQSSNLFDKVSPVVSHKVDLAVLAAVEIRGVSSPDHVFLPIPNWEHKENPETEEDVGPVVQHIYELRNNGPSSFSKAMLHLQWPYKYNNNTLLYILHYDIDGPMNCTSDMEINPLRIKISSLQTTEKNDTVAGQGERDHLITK
T1 sequence (P06756 891-1048 partner limits assumed): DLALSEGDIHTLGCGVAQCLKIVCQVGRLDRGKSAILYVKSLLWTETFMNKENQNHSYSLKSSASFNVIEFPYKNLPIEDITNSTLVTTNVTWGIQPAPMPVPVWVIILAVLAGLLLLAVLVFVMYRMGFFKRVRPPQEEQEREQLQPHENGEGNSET
T2 sequence (P05556 21-798): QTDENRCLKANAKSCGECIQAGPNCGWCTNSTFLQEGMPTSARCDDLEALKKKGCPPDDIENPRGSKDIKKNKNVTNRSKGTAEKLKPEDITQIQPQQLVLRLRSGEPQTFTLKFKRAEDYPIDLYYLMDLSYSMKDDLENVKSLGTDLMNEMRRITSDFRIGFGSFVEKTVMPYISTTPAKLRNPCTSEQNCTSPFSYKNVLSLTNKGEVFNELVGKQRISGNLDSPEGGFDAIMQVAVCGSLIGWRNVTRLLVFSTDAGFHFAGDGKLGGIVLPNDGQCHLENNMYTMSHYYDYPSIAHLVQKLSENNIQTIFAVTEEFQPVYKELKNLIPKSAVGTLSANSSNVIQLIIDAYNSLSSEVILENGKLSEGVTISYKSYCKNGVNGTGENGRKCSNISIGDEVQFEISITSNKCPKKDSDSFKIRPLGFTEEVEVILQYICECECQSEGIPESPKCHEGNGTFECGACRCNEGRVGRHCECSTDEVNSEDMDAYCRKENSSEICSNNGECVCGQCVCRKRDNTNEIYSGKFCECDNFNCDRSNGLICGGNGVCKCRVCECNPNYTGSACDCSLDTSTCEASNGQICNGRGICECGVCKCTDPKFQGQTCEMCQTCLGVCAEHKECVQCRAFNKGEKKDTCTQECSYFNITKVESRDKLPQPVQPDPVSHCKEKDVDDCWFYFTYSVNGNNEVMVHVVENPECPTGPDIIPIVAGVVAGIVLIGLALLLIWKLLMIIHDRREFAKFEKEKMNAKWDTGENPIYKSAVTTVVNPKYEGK

B1: gBDLD: amino acids 57-146 of HCMV AD169 glycoprotein B disintegrin-like domain, His-tagged, expressed in E. coli (protein)
chain: VTSSEAVSHRANETIYNTTLKYGDVVGVNTTKYPYRVCSMAQGTDLIRFERNIICTSMKPINEDLDEGIMVVYKRNIVAHTFKVRVYQKV
modifications: left off: small tags and cut ends
notes: amino acids 57-146 of HCMV AD169 glycoprotein B disintegrin-like domain, His-tagged, expressed in E. coli
Turning to B1, the Solubility entry in data set [1] is given as “approximately 1 mg/mL”. The “reorganization of the cytoskeleton” value in the data set on NHDF cells was “triggered a dramatic reorganization of the cytoskeleton”. For the same molecule, in data set [2] (4° C., absorbance at 405 nm), the “kinetics of gBDLD binding to human fibroblasts” value is listed as “rapid kinetics”. The “concentration at which binding to fibroblast monolayers reached saturation” value in data set [2] (60 minutes, after BSA blocking) came out at 12.5 µg/mL. Moreover, the “interaction with β3 integrin (pull down)” value with β3 integrin is “does not interact with β3 integrins”. In addition, the “block of HCMV fusion and gene expression” value with diI-labeled HCMV was “complete block of HCMV fusion and gene expression”. The “interaction with β1 integrin (pull down)” value with β1 integrin was “interacts with β1 integrins”.

Values taken from US20150104466A1, “CYTOMEGALOVIRUS DISINTEGRIN-LIKE PEPTIDES” (priority 2013, published 2015).
